Results from US20030219825A1.

Target: melanocortin-1 receptor (MC1R) (human) (UniProt Q01726)
Experiment: cell-based or functional assay
Conditions: scale: response value

Chain of UniProt Q01726 (Q01726 whole entry): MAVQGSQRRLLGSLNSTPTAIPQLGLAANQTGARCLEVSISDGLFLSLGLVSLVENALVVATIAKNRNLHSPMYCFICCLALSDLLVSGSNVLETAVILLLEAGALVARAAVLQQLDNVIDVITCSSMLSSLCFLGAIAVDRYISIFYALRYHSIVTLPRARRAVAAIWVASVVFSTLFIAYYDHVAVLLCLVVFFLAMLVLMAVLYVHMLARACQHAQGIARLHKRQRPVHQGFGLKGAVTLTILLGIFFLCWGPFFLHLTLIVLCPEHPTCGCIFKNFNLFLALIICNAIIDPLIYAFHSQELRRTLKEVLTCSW

In the case of “4-L-norleucine-7-D-phenylalanine-alpha melanocyte stimulating hormone (from UniProt P01189 138-150) (peptide)”, the maximal response value (z value minus background z value, luminescence, 6xCRE-luciferase reporter lawn) is reported as 25.
